Experimental findings from patent US20220184120A1 (MINERVA BIOTECHNOLOGIES, published 2022) are described below.

Assay [1] has as its target T1, PSMGFR peptide (Primary Sequence of the MUC1 Growth Factor Receptor).
T1 construct: synthetic peptide immobilised on ELISA plates; also called MUC1* peptide; MUC1* extra cellular domain peptide
T1 peptide: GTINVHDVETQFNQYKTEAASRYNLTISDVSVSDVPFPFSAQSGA
Description: ELISA (FIG. 65). For orientation: An ELISA detects its analyte on a solid surface through an enzyme-linked reagent.

Assay [2] addresses T2, N-10 peptide (PSMGFR minus 10 amino acids from the N-terminus).
T2 construct: also called N-10 PSMGFR; PSMGFR N-10
T2 peptide: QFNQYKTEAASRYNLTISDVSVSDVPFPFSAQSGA
Description: ELISA.

The target of assay [3] is T3, N+20/C-27 peptide (20 amino acids added onto the N-terminus and 27 deleted from the C-terminus of PSMGFR).
T3 peptide: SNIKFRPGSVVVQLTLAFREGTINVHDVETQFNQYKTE
Description: ELISA.

The target of assay [4] is T4, C-10 peptide (PSMGFR minus 10 amino acids from the C-terminus).
T4 construct: also called C-10 PSMGFR; PSMGFR C-10
T4 peptide: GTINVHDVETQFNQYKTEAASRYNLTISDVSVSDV
The assay is described as follows: ELISA.

The target in assay [5] is T4, C-10 peptide (PSMGFR minus 10 amino …). Description: ELISA (FIG. 201C). On the procedure:
(§1) FIG. 201A-201C show graphs of ELISA assays to determine the binding of another set of antibodies generated by immunizing animals with the PSMGFR peptide. […] F3, B12, B2, B7, B9, 8C7F3 and H11 all bound to the PSMGFR peptide and to the N−10 peptide.
(§2) This same ELISA assay was performed on the antibodies of the invention (FIG. 64-66 and FIG. 201). Note that only 20A10 exactly matches the binding profile of MNC2 and MNE6. 25E6, 28F9 and 18G12 are all able to bind to the N−10 peptide. 18B4 is the only antibody raised against the PSMGFR peptide that requires the 10 most N-terminal amino acids of the peptide. The color of the bars for each antibody in the ELISA graph are color coded to match the deductive cognate sequence, or a portion thereof, of that antibody. In addition, another set of antibodies was assayed by ELISA (FIG. 201). Of this set, B12, B2, B7, B9, 8C7F3, and H11 bound to the PSMGFR peptide, bound to the N−10 peptide, but not to the C−10 peptide (FIG. 201). Although these antibodies were raised against the N+20/C−27 peptide, all but one, 45C11, still bind to the PSMGFR peptide, albeit at the N-terminal portion of PSMGFR.

Assay [6] deals with T1, PSMGFR peptide (Primary Sequence of the …). Description: ELISA (FIG. 201A).
Assay [7] addresses T2, N-10 peptide (PSMGFR minus 10 amino …). Description: ELISA (FIG. 201B). The procedure: as §1, §2
The target of assay [8] is T1, PSMGFR peptide (Primary Sequence of the …). The assay is described as follows: ELISA.
Assay [9] has as its target T5, N+9/C-9 peptide (9 amino acids added onto the N-terminus and 9 deleted from the C-terminus of PSMGFR).
T5 peptide: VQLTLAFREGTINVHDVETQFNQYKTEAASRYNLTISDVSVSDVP
Description: ELISA (FIG. 64A).

For assay [10], the target named is T2, N-10 peptide (PSMGFR minus 10 amino …). The assay is described as follows: ELISA (FIG. 64).

B1: 29H1 mouse monoclonal antibody (antibody, V domains shown)
VH: EVKLEESGGGLVQPGGSMKLSCAASGFTFSDAWMDWVRQSPEKGLEWVAEIRSKATNHATYYAESVKGRFTISRDDSKSSVYLQMNSLRAEDTGIYYCTPLLYGFAYWGQGTLVTVSA
VL: DVVMTQTPLSLPVSLGDQASISCRSGQSLVHSNGHTYLHWYLQKPGQSPRLLIYKVSNRFSGVPDRFSGSGSRADFTLKISRVEAEDLGVYFCSQTTHVPWTFGGGTKLEIK
notes: raised against N+20/C-27; also called N+20/C-27 antibody 29H1
B1: the binding result in [1] is “binds”; in [2], “no binding”; in assay [3], “binds”; in [4], “binds”.

B2: 32C1 mouse monoclonal antibody (antibody, V domains shown)
VH: EVKLEESGGGLVQSGGSMKLSCVASGFTFSNYWMNWVRQSPEKGLEWVAEIRLKSNNYAIHYAESVKGRFTISRDDSKSSVYLQMNNLRAEDTGIYYCTRVPGLDAYWGQGTLVTVSA
VL: DVVMTQTPLSLPVSLGDQASISCRSSQSLVHSNGNTYLHWYLQKPGQSPKLLIYKVSNRFSGVPDRFSGSGSGTDFTLKISSVEAEDLGVYFCSQITHVPYTFGGGTNLEIK
notes: raised against N+20/C-27; also called N+20/C-27 antibody 32C1
For B2, the binding result in [1] is recorded as “binds”; in assay [2] it was “no binding”; in [3] it was “binds”; in assay [4], “binds”.

B3: B2 mouse monoclonal antibody (antibody, V domains shown)
VH: EVVLVESGGGLVEPGGSLKLSCVASGFAFSTFAMSWIRQTPEKRLEWVAAISNGGGYTYYPDTLKGRFSISRDNAKNTLYLQMSSLRSEDTAVYYCARRYYDLYFDLWGRGTSLIVSS
VL: DILMTQTPLSLPVSLGDQASISCRSSQNIVHSNGNTYLEWYLQKPGQSPKLLIYKVSNRFSGVPDRFSGSGSGTDFTLKISRVEAEDLGVYYCFQDSHVPLTFGAGTRLELK
notes: raised against PSMGFR; built from framework and CDR entries
In the case of B3, the binding result is listed as “no binding” in assay [5], “binds” in assay [6] and “binds” in [7].

B4: 5C6F3 mouse monoclonal antibody (antibody, V domains shown)
VH: EVMLVESGGGLVKPGGSLKLSCAASGFTFSTYAMSWVRQTPEKRLEWVAAISNGGGYTYYPDSLKGRFTISRDNAKNTLYLQMSSLRSEDTATYYCARRYYDHYFDYWGQGTALTVSS
VL: DVLMTQTPLSLPVSLGDQASISCRSSQTIVHSNGNTYLEWYLQKPGQSPKLLIYKVSNRFSGVPDRFSGSGSGTDFTLKISRVEAEDLGVYYCFQDSHVPLTFGAGTKLELK
notes: raised against PSMGFR; also called MN-5C6F3; anti-PSMGFR antibody 5C6F3
With B4, the binding result in [2] and in [8] was “binds” each time.

B5: 31A1 mouse monoclonal antibody (antibody, V domains shown)
VH: QVQLQQSGAELAKPGASVKMSCKASGYTFTSYWMHWVKQRPGQGLEWIGYINPSTGYTEYNQKFKDKATLTADKSSSTAYMQLSSLTSEDSAVYYCARAYIDYWGQGTTLTVSS
VL: DVLMTQTPLSLPVSLGDQASFSCRSSQSIVHSNGNTYLEWYLQKPGQSPKLLIYKVSNRFSGVPDRFSGSGSGTDFTLKINRVEAEDLGVYYCFQVSHFPWTFGGGTKLEIK
notes: raised against N+20/C-27; also called N+20/C-27 antibody 31A1
Take B5: the binding result in assay [1] is reported as “binds”; in assay [2], “no binding”; in assay [3] it was “binds”; in [4], “binds”.

B6: B7 mouse monoclonal antibody (antibody, V domains shown)
VH: EVQVVESGGDLVKPGGSLKLSCAASGFTFSRYGMSWVRQTPDKRLEWVATISSGGTYIYYPDSVKGRFTISRDNAKNTLYLQMSSLKSEDTAMYYCARDNYGSSYDYAMDYWGQGTSVTVSS
VL: DVLMTQTPLSLPVSLGDQASISCRSSQTIVHSNGNTYLEWYLQKPGQSPKLLIYKVSNRFSGVPDRFSGSGSGTDFTLKISRVEAEDLGVYYCFQDSHVPLTFGAGTKLELK
notes: as for B3
For the molecule B6, the binding result in assay [5] is on record as “no binding”.

B7: H11 mouse monoclonal antibody (antibody, V domains shown)
VH: EVVLVESGGGLVEPGGSLKLSCVASGFAFSTFAMSWIRQTPEKRLEWVAAISNGGGYTYYPDTLKGRFTISRDNAKNTLYLQMSSLRSEDTAVYYCARRYYDLYFDLWGQGTSLIVSS
VL: DILMTQTPLSLPVSLGDQASISCRSSQNIVHSNGNTYLEWYLQKPGQSPKLLIYKVSNRFSGVPDRFSGSGSGTDFTLKISRVEAEDLGVYYCFQDSHVPLTFGAGTRLELK
notes: as for B3
For B7, the binding result in assay [5] is reported as “no binding”.

B8: 28F9 mouse monoclonal antibody (antibody, V domains shown)
VH: QVQLQQPGAELVQPGASVKLSCKASGYTFTGYFLYWVKQRPGHGLEWIGGIHPSNGDTDFNEKFKNKATLTVDISSSTAYMQLSSLTSEDSAVYYCTLLIGVYWGQGTTLTVSS
VL: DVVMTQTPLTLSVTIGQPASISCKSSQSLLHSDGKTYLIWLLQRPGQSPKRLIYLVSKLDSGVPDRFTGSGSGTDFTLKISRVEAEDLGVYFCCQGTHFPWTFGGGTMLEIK
notes: raised against PSMGFR; also called MN-28F9; anti-PSMGFR antibody 28F9
Turning to B8, the binding result in assay [9], in assay [10], in [4] and in assay [8] was “binds” throughout.

B9: 18G12 mouse monoclonal antibody (antibody, V domains shown)
VH: QVQLQQSGAELVKPGASVKLSCKASGYTFTGYFLYWVKQRPGQGLEWIGGINPDNGGIDFNEKFRNKATLTVDKSSSTAYMQLSSLTSEDSAVYYCTLLIGNYWGQGTTLTVSS
VL: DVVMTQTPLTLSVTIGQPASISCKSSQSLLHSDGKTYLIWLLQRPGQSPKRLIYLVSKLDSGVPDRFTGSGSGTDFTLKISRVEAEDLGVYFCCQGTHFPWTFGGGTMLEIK
notes: raised against PSMGFR; also called MN-18G12; anti-PSMGFR antibody 18G12
On to B9, for which the binding result in assay [9], in assay [10], in assay [4] and in assay [8] was “binds” each time.

B10: 3C2B1 mouse monoclonal antibody (antibody, V domains shown)
VH: EVMLVESGGGLVKPGGSLKLSCAASGITFSTYTMSWVRQTPEKRLEWVATISTGGDKTYYSDSVKGRFTISRDNAKNNLYLQMSSLRSEDTALYYCARGTTAMYYYAMDYWGQGTSVTVSS
VL: DIVLTQSPASLAVSLGQRATISCRASKSISTSDYNYIHWYQQKPGQPPKLLIYLASNLESGVPARFSGSGSGTDFTLNIHPVEEEDAATYYCQHSRELPLTFGAGTKLELK
notes: raised against PSMGFR; also called MN-3C2B1; anti-PSMGFR antibody 3C2B1
With B10, the binding result is given as “binds” in assay [2], “no binding” in assay [4] and “binds” in [8].

B11: B9 mouse monoclonal antibody (antibody, V domains shown)
VH: EVQVVESGGDLVKPGGSLKLSCAASGFTFSRYGMSWVRQTPDKRLEWVATISSGGTYIYYPDSVKGRFTISRDNAKNTLYLQMSSLKSEDTAMYYCARDNYGSSYDYAMDYWGQGTSVTVSS
VL: QIVLTQSPAIMSASPGEEVTLTCSASSSVSYMHWFQQRPGTSPKLWIYTTSNLASGVPARFSGSGSGTSYSLTISRMEAEDAATYYCQQRSSYPFTFGSGTKLEIK
notes: as for B3
Consider B11, for which the binding result is on record as “no binding” in assay [5], “binds” in [6] and “binds” in assay [7].

B12: 25E6 mouse monoclonal antibody (antibody, V domains shown)
VH: EVQLVESGGDLVKPGGSLKLSCAASGFTFSSYGMSWVRQTPDKRLEWVATISNGGRHTFYPDSVKGRFTISRDNAKNTLYLQMSSLKSEDTAMYLCVRQTGTEGWFAYWGQGTLVTVSA
VL: not shown
notes: raised against PSMGFR; also called MN-25E6; anti-PSMGFR antibody 25E6
For the molecule B12, the binding result in assay [9], in [10] and in assay [8] was “binds” throughout.

B13: B12 mouse monoclonal antibody (antibody, V domains shown)
VH: QAQLKESGPGLVAPSQSLSITCTVSGFSLTSYGVHWVRQPPGKGLEWLGVIWPGGSTNYNSTLMSRMRIIKDNSKSQVFLKMNSLQIDDTAMYYCARDRTPRVGAWFAYWGQGTLVTVSA
VL: IIVLTQSPASLAVSLGQRATISCRASESVATYGNNFMQWYQQKPGQPPKLLIYLASTLDSGVPARFSGSGSRTDFTLTIDPVEADDAATYYCQQNNEDPPTFGGGTKLEIK
notes: as for B3
Regarding B13, the binding result in assay [5] is on record as “no binding”; in assay [6] it was “binds”; in assay [7] it was “binds”.

B14: 8C7F3 mouse monoclonal antibody (antibody, V domains shown)
VH: EVMLVESGGGLVKPGGSLKLSCAASGFTFSTYAMSWVRQTPEKRLEWVAAISNGGGYTYYPDSLKGRFTISRDNAKNTLYLQMSSLRSEDTATYYCARRYYDHYFDYWGQGTALTVSS
VL: IIVLTQSPASLAVSLGQRATISCRASESVATYGNNFMQWYQQKPGQPPKLLIYLASTLDSGVPARFSGSGSRTDFTLTIDPVEADDAATYYCQQNNEDPPTFGGGTKLEIK
notes: as for B3
B14: the binding result in [5] is given as “no binding”.
